Data: PMC3078060 (Molecular Biology of the Cell, 2011)

T1: His6-Vps41 (S. cerevisiae, UniProt P38959 1-992)
T1 sequence: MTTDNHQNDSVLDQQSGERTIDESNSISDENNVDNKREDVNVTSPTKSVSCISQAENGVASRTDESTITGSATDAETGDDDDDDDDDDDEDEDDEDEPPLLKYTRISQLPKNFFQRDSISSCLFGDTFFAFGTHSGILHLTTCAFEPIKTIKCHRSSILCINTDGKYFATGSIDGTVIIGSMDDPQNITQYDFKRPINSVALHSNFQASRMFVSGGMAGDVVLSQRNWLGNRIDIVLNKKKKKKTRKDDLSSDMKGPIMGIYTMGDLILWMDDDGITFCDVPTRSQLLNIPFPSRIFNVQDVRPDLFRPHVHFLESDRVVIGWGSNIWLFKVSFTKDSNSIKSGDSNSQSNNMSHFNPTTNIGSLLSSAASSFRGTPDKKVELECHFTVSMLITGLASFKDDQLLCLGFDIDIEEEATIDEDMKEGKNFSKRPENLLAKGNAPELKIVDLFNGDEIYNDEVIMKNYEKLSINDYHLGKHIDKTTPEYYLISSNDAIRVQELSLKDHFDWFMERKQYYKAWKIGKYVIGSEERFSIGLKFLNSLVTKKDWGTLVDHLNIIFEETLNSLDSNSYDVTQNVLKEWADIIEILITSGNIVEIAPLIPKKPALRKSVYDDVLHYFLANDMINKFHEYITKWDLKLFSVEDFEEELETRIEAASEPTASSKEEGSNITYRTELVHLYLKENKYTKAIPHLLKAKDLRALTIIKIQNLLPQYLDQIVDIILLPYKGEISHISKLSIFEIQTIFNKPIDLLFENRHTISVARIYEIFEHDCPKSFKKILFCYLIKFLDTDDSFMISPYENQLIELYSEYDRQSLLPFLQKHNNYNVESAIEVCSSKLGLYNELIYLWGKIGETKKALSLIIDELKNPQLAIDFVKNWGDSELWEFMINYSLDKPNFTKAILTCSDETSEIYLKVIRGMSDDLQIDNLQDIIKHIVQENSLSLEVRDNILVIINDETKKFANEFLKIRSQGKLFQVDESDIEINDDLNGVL

T2: His6-Vps39–860Δ (S. cerevisiae, UniProt Q07468 1-860)
T2 sequence: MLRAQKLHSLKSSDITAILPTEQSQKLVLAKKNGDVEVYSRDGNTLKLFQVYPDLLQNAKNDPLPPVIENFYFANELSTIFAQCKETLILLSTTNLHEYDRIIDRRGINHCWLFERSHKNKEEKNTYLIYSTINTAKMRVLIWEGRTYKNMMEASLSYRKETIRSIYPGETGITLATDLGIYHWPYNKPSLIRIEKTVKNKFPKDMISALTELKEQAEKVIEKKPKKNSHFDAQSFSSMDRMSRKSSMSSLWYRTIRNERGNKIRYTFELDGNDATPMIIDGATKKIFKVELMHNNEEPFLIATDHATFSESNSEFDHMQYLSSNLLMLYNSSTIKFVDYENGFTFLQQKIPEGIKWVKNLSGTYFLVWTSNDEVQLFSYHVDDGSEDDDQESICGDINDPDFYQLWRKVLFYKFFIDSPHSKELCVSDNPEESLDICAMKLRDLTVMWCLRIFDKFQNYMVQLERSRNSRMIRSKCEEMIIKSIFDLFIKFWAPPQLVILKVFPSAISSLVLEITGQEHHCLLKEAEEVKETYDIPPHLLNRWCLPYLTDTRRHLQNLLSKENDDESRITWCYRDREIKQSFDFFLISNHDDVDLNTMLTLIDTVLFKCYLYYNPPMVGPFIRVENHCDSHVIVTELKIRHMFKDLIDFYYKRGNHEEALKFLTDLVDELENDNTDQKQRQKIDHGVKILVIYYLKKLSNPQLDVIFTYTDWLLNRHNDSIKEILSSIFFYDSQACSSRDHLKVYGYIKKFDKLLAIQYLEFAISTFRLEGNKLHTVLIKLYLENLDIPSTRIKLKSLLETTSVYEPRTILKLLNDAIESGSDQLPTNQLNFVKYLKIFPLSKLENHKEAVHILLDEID

T3: His6-Vps3 (S. cerevisiae, UniProt P23643 1-1011)
T3 sequence: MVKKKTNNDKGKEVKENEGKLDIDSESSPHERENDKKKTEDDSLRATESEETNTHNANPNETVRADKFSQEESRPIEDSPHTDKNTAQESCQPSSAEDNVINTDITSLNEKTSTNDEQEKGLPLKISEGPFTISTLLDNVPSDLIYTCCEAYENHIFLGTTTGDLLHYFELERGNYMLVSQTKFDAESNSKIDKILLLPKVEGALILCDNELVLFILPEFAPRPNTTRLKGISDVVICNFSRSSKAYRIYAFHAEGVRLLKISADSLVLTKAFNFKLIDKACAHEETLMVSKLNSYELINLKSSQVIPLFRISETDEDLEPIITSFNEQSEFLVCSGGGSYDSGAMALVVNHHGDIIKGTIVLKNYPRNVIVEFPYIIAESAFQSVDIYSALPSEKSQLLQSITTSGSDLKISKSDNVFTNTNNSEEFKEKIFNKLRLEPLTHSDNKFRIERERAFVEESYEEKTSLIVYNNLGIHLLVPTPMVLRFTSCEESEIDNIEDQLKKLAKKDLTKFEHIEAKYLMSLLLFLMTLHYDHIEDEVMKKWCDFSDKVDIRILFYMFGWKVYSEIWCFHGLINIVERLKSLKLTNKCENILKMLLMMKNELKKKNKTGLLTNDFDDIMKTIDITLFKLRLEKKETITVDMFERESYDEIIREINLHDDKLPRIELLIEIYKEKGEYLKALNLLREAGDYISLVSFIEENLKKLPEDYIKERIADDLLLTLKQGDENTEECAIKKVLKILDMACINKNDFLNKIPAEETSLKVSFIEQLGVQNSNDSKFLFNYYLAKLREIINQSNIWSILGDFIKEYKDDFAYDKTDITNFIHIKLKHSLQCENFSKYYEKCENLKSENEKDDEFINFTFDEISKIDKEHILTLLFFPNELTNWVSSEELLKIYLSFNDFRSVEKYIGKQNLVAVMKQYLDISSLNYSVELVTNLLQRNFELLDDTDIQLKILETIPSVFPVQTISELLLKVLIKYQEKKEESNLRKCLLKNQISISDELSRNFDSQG


Columns and labels:
Assay in all cases: pull-down
His6-Vps41 = target: T1, His6-Vps41
His6-Vps39–860Δ = target: T2, His6-Vps39–860Δ
His6-Vps3 = target: T3, His6-Vps3

Row | binding result (His6-Vps41) | binding result (His6-Vps39–860Δ) | binding result (His6-Vps3) | Binder
1 | binds | binds | – | GST-Ypt7 (natural protein) MSSRKKNILKVIILGDSGVGKTSLMHRYVNDKYSQQYKATIGADFLTKEVTVDGDKVATMQVWDTAGQERFQSLGVAFYRGADCCVLVYDVTNASSFENIKSWRDEFLVHANVNSPETFPFVILGNKIDAEESKKIVSEKSAQELAKSLGDIPLFLTSAKNAINVDTAFEEIARSALQQNQADTEAFEDDYNDAINIRLDGENNSCSC
2 | – | – | binds | GST-Vps21 (natural protein) MNTSVTSIKLVLLGEAAVGKSSIVLRFVSNDFAENKEPTIGAAFLTQRVTINEHTVKFEIWDTAGQERFASLAPMYYRNAQAALVVYDVTKPQSFIKARHWVKELHEQASKDIIIALVGNKIDMLQEGGERKVAREEGEKLAEEKGLLFFETSAKTGENVNDVFLGIGEKIPLKTAEEQNSASNERESNNQRVDLNAANDGTSANSACSC
